Test [1] concerns the target 16C3 antigen (CEACAM5 and/or CEACAM6) on tumor cells. Nature of the test: flow cytometry, HT-29 colorectal cells. (A flow cytometer gives signals particle by particle.)
Test [2] has the same target. Nature of the test: flow cytometry, HT-29 colorectal cells. The source holds these as a separate data set.
Test [3] has the same target. The test is described as follows: flow cytometry, LS174T colorectal cells.
The target is the same in test [4]. Nature of the test: flow cytometry, LS174T colorectal cells. The source holds these as a separate data set.
Test [5] shares this target. Nature of the test: flow cytometry, CFPAC-1 pancreatic cells.
For test [6] the target is unchanged. Nature of the test: flow cytometry, CFPAC-1 pancreatic cells. The source holds these as a separate data set.
Test [7] has the same target. Nature of the test: rosetting assay, antibody-coupled beads on CFPAC-1 cells.
Test [8] shares this target. Nature of the test: rosetting assay, h16C3-coupled beads on CFPAC-1 cells in the presence of 4B6 at 5 µg/ml.

B1: h16C3 (antibody, from a related filing, V domains shown)
VH: QVQLVQSGAEVKKPGASVKVSCKASGYTFTDYAMHWVRQAPGQRLEWMGLISTYSGDTKYNQNFQGRVTMTVDKSASTAYMELSSLRSEDTAVYYCARGDYSGSRYWFAYWGQGTLVTVSS
VL: DIQMTQSPSSLSASVGDRVTITCQASENIYGALNWYQRKPGKSPKLLIYGASNLATGMPSRFSGSGSGTDYTFTISSLQPEDIATYYCQQVLSSPYTFGGGTKLEIKR
Turning to B1, the % Cell Staining in test [1] is 26.3%; in test [3], 69.4%; in test [5], 91.8%. For the same molecule, the mean fluorescence intensity in test [1] turned out to be 44 mfi; in test [2], 44 mfi; in test [3], 103 mfi; in test [4] it was 103 mfi; in test [5], 91 mfi; in test [6], 91 mfi. For the same molecule, the Rosetted cells (>8 beads) in test [7] stood at 53%; in test [8], 50%.

The values above are taken from patent US20190322720A1.
